By Kd is commonly meant a measure of binding affinity in units of concentration.

Targets include HLA-A*02:06; HLA-A*02:03; HLA-A*02:02; HLA-A*31:01; HLA-A*68:01; HLA-A*11:01; HLA-A*33:01; HLA-A*03:01.
Common to all, as to test: IEDB peptide-MHC binding, purified MHC/competitive/radioactivity; filed as Kd, often an IC50 or EC50 that approximates it; ≥ and ≤ were set here for values at or beyond the usual limits of such assays
The mark [1] stands for this setting: source organism: Vaccinia virus WR.
Setting [2] is: source organism: Dengue virus 1 Brazil/97-11/1997.
Where [3] appears, read: source organism: SARS coronavirus Tor2.
The mark [4] stands for this setting: source organism: Lassa virus Josiah.
Where [5] appears, read: source organism: Lymphocytic choriomeningitis virus (strain Armstrong).
The mark [6] stands for this setting: source organism: Mammarenavirus juninense.
The mark [7] stands for this setting: source organism: Vaccinia virus Copenhagen.

For NMKPNFWSRI, the results for the Kd in the experiment with HLA-A*02:06 (setting [1]), with HLA-A*02:03 (setting [1]) and with HLA-A*02:02 (setting [1]) were 13900 nM, 193 nM and 1680 nM, respectively.
In the case of PIPMSRLFM, the figures for the Kd in the experiment with HLA-A*02:06 (setting [1]), with HLA-A*02:03 (setting [1]) and in the experiment with HLA-A*02:02 (setting [1]) were no less than 31200 nM, 9130 nM and 3890 nM, respectively.
The corresponding values for PLTGNNTITT are no less than 69800 nM, no less than 29500 nM and 7670 nM.
For PVIVPDIKL, in that order: no less than 51200 nM, no less than 32700 nM and no less than 41200 nM.
RTRCKYVGCT: the Kd with HLA-A*02:06 (setting [1]) came to 11600 nM; in the experiment with HLA-A*02:03 (setting [1]) it was 12300 nM; with HLA-A*02:02 (setting [1]) it was 149 nM.
The corresponding values for RVKQWVMDT are 13500 nM, 3.61 nM and 3630 nM.
As for SIDHCSSFI, the Kd in the experiment with HLA-A*02:06 (setting [1]) was 199 nM; with HLA-A*02:03 (setting [1]), 12.9 nM; with HLA-A*02:02 (setting [1]), 631 nM.
As for SLALKNSQA, the Kd with HLA-A*02:06 (setting [1]) was 19000 nM; in the experiment with HLA-A*02:03 (setting [1]), 459 nM; with HLA-A*02:02 (setting [1]), 662 nM.
The corresponding values for SMMVILPDKI are 5.67 nM, 19.2 nM and 28.3 nM.
For SMSQELAELL, in that order: 474 nM, 54.5 nM and 6.19 nM.
For STVDVRNIVT, in that order: 1570 nM, 11600 nM and 3060 nM.
SVDAMIHKT: the Kd with HLA-A*02:06 (setting [1]) worked out at 10600 nM; in the experiment with HLA-A*02:03 (setting [1]) it was 3660 nM; with HLA-A*02:02 (setting [1]), 5020 nM.
For TIDNIVTSL, in that order: 2730 nM, 1040 nM and 178 nM.
Regarding TIEDDKIVTM, the values for the equilibrium dissociation constant (Kd) with HLA-A*02:06 (setting [1]), with HLA-A*02:03 (setting [1]) and with HLA-A*02:02 (setting [1]) were no less than 26100 nM, 17200 nM and 17000 nM, respectively.
On to TIGLSLVASV, for which the Kd with HLA-A*02:03 (setting [2]) worked out at 12.8 nM.
For VLFSGVSWT, in the experiment with HLA-A*02:03 (setting [2]), the Kd was determined as 60.1 nM.
On to VLLRKNGNK, for which the Kd is 2360 nM with HLA-A*31:01 (setting [3]); no less than 26100 nM in the experiment with HLA-A*68:01 (setting [3]); 1660 nM with HLA-A*11:01 (setting [3]); 9640 nM in the experiment with HLA-A*33:01 (setting [3]); 42.2 nM in the experiment with HLA-A*03:01 (setting [3]).
As for VLQQNNSFI, the Kd with HLA-A*02:06 (setting [1]) came out at 8680 nM; with HLA-A*02:03 (setting [1]), 249 nM; with HLA-A*02:02 (setting [1]) it was 100 nM.
As to VQADMGCVV, in the experiment with HLA-A*02:06 (source organism: Dengue virus 4 Singapore/8976/1995), the Kd worked out at 23.3 nM.
Regarding VQYENLKYSV, the Kd with HLA-A*02:06 (setting [2]) stood at 31.2 nM.
Regarding VSDLYTSMR, the Kd amounted to 1310 nM with HLA-A*31:01 (setting [1]); 651 nM in the experiment with HLA-A*68:01 (setting [1]); 4650 nM in the experiment with HLA-A*11:01 (setting [1]); 4200 nM in the experiment with HLA-A*33:01 (setting [1]); 2490 nM in the experiment with HLA-A*03:01 (setting [1]).
In the case of VTFLLLCGR, the Kd stood at 18.4 nM with HLA-A*31:01 (setting [4]); 13.8 nM with HLA-A*68:01 (setting [4]); 18.2 nM in the experiment with HLA-A*11:01 (setting [4]); 132 nM with HLA-A*33:01 (setting [4]); 3060 nM with HLA-A*03:01 (setting [4]).
Consider VVVGDIIGV, for which, in the experiment with HLA-A*02:06 (source organism: Dengue virus 3 Martinique/1243/1999), the Kd was found to be 4.38 nM.
For YCNYSKFWYL, the Kd worked out at 1060 nM with HLA-A*02:06 (setting [5]), 9630 nM in the experiment with HLA-A*02:03 (setting [5]) and 1110 nM with HLA-A*02:02 (setting [5]).
As for YCNYTKFWYV, the Kd came out at 6.54 nM with HLA-A*02:06 (setting [6]), 101 nM with HLA-A*02:03 (setting [6]) and 322 nM with HLA-A*02:02 (setting [6]).
On to YITDDSDDY, for which the Kd in the experiment with HLA-A*31:01 (setting [1]) was no less than 77900 nM; with HLA-A*68:01 (setting [1]) it was no less than 77700 nM; with HLA-A*11:01 (setting [1]), no less than 77900 nM; in the experiment with HLA-A*33:01 (setting [1]), no less than 77700 nM; with HLA-A*03:01 (setting [1]), no less than 78000 nM.
For YLLGLSAIM, the results for the Kd with HLA-A*02:06 (setting [3]), with HLA-A*02:03 (setting [3]) and with HLA-A*02:02 (setting [3]) were 3.22 nM, 37.1 nM and 1.69 nM, respectively.
For YLSKEDRII, the Kd with HLA-A*02:06 (setting [1]) is 10500 nM; in the experiment with HLA-A*02:03 (setting [1]) it was 435 nM; with HLA-A*02:02 (setting [1]), 305 nM.
The corresponding values for YQSFLFWFL are 40.1 nM, 2.5 nM and 0.381 nM.
Consider YSMCTGKFKV, for which, in the experiment with HLA-A*02:06 (source organism: Dengue virus 2 16681-PDK53), the Kd stood at 54.4 nM.
For YTFAISYCR, the Kd stood at 0.933 nM in the experiment with HLA-A*31:01 (setting [7]); 0.418 nM with HLA-A*68:01 (setting [7]); 3.35 nM with HLA-A*11:01 (setting [7]); 1.73 nM with HLA-A*33:01 (setting [7]); 2760 nM in the experiment with HLA-A*03:01 (setting [7]).
With YTISSESLVY, the Kd with HLA-A*31:01 (setting [1]) is no less than 27900 nM; in the experiment with HLA-A*68:01 (setting [1]), 21.4 nM; with HLA-A*11:01 (setting [1]), 31.8 nM; in the experiment with HLA-A*33:01 (setting [1]), no less than 70000 nM; in the experiment with HLA-A*03:01 (setting [1]), 831 nM.
